Measured values reported in article PMC10397247.

T1: O2-bP
T1 chain: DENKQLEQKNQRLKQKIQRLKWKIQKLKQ

T2: O3-bP
T2 chain: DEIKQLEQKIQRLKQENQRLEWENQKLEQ

T3: O4-bP
T3 chain: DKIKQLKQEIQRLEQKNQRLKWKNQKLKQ

T4: O5-bP
T4 chain: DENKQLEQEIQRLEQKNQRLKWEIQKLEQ

T5: O6-bP
T5 chain: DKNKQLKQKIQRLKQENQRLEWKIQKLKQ

T6: O7-bP
T6 chain: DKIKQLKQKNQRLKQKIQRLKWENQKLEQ

T7: O8-bP
T7 chain: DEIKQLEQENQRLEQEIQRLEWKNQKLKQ

T8: O9-bP
T8 chain: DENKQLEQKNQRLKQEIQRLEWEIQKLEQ

T9: 4H3175-bH
T9 chain: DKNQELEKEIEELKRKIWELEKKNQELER

T10: 4H3277-bH
T10 chain: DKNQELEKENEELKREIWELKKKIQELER

T11: 4H3298-bH
T11 chain: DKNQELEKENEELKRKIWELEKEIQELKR

T12: 4H3462-bH
T12 chain: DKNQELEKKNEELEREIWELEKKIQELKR

T13: 4H3497-bH
T13 chain: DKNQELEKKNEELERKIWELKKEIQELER

T14: 4H3613-bH
T14 chain: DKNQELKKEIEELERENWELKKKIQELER

T15: 4H3628-bH
T15 chain: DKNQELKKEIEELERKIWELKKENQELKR

T16: 4H3926-bH
T16 chain: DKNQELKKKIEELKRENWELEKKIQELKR

T17: 4H591-bH
T17 chain: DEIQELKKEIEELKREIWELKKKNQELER

T18: 4H626-bH
T18 chain: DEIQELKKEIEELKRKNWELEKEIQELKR

T19: 4H906-bH
T19 chain: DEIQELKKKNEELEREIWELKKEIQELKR

T20: 4H918-bH
T20 chain: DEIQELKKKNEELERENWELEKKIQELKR


Experiments:
Test in all cases: two-hybrid library CCNG1;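 note: natural log of median RNA to DNA barcode read ratio; higher means stronger binding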
[1] = target: T1, O2-bP
[2] = target: T2, O3-bP
[3] = target: T3, O4-bP
[4] = target: T4, O5-bP
[5] = target: T5, O6-bP
[6] = target: T6, O7-bP
[7] = target: T7, O8-bP
[8] = target: T8, O9-bP
[9] = target: T9, 4H3175-bH
[10] = target: T10, 4H3277-bH
[11] = target: T11, 4H3298-bH
[12] = target: T12, 4H3462-bH
[13] = target: T13, 4H3497-bH
[14] = target: T14, 4H3613-bH
[15] = target: T15, 4H3628-bH
[16] = target: T16, 4H3926-bH
[17] = target: T17, 4H591-bH
[18] = target: T18, 4H626-bH
[19] = target: T19, 4H906-bH
[20] = target: T20, 4H918-bH

| Binder | interaction score [1] | interaction score [2] | interaction score [3] | interaction score [4] | interaction score [5] | interaction score [6] | interaction score [7] | interaction score [8] | interaction score [9] | interaction score [10] | interaction score [11] | interaction score [12] | interaction score [13] | interaction score [14] | interaction score [15] | interaction score [16] | interaction score [17] | interaction score [18] | interaction score [19] | interaction score [20] |
| --- | --- | --- | --- | --- | --- | --- | --- | --- | --- | --- | --- | --- | --- | --- | --- | --- | --- | --- | --- | --- |
| DENKQLEQKNQRLKQKIQRLKWKIQKLKQ [O2-bP] | -1.2 | -0.635 | -0.811 | -0.804 | -0.766 | -0.723 | -1.21 | -1.4 | – | – | – | – | – | – | – | – | – | – | – | – |
| DKNQELEKEIEELKRKIWELEKKNQELER [4H3175-bH] | – | – | – | – | – | – | – | – | 0.103 | -0.0103 | -0.132 | 0.891 | 0.402 | -0.475 | -0.799 | -0.189 | -2.15 | -1.62 | 0.787 | -1.69 |
